Laboratory results reported in US6372467.

Tests used:
[1] = target: histone H2B
[2] = target: Glutathione-S-transferase (GST)-tagged S6

B1: hemagglutinin (HA)-tagged p54^S6K (protein)
chain: MAAVFDLDLETEEGSEGEGEPELSPADACPLAELRAAGLEPVGHYEEVELTETSVNVGPERIGPHCFELLRVLGKGGYGKVFQVRKVQGTNLGKIYAMKVLRKAKIVRNAKDTAHTRAERNILESVKHPFIVELAYAFQTGGKLYLILECLSGGELFTHLEREGIFLEDTACFYLAEITLALGHLHSQGIIYRDLKPENIMLSSQGHIKLTDFGLCKESIHEGAVTHTFCGTIEYMAPEILVRSGHNRAVDWWSLGALMYDMLTGSPPFTAENRKKTMDKIIRGKLALPPYLTPDARDLVKKFLKRNPSQRIGGGPGDAADVQRHPFFRHMNWDDLLAWRVDPPFRPCLQSEEDVSQFDTRFTRQTPVDSPDDTALSESANQAFLGFTYVAPSVLDSIKEGFSFQPKLRSPRRLNSSPRVPVSPLKFSPFEGFRPSPSLPEPTELPLPPLLPPPPPSTTAPLPIRPPSGTKKSKRGRGRPGR
in vitro kinase assay (screen of substrates) [1]: p54^S6K can phosphorylate both S6 and histone H2B | in vitro kinase assay (phosphorylation of GST-S6 by anti-HA immunoprecipitates) [2]: p54^S6K kinase activity towards S6 was stimulated by serum treatment of the cells

B2: HA-p54^S6K KR (protein)
chain: MAAVFDLDLETEEGSEGEGEPELSPADACPLAELRAAGLEPVGHYEEVELTETSVNVGPERIGPHCFELLRVLGKGGYGKVFQVRKVQGTNLGKIYAMRVLRKAKIVRNAKDTAHTRAERNILESVKHPFIVELAYAFQTGGKLYLILECLSGGELFTHLEREGIFLEDTACFYLAEITLALGHLHSQGIIYRDLKPENIMLSSQGHIKLTDFGLCKESIHEGAVTHTFCGTIEYMAPEILVRSGHNRAVDWWSLGALMYDMLTGSPPFTAENRKKTMDKIIRGKLALPPYLTPDARDLVKKFLKRNPSQRIGGGPGDAADVQRHPFFRHMNWDDLLAWRVDPPFRPCLQSEEDVSQFDTRFTRQTPVDSPDDTALSESANQAFLGFTYVAPSVLDSIKEGFSFQPKLRSPRRLNSSPRVPVSPLKFSPFEGFRPSPSLPEPTELPLPPLLPPPPPSTTAPLPIRPPSGTKKSKRGRGRPGR
in vitro kinase assay (phosphorylation of GST-S6 by anti-HA immunoprecipitates) [2]: The KR mutation of p54^S6K abolished the kinase activity in an in vitro kinase assay
